Results on one substance are retold here after publication PMC2140169.

In experiment [1] the target is GST-Nup358 fragment 2500-C (amino acid 2500 to the COOH terminus) (UniProt P49792). The experiment is described as follows: solid-phase binding assay in microtiter wells.
Experiment [2] deals with GST-Nup358 fragment amino acids 2550-2837 (region between Ran-binding domains three and four, without FXFG repeats) (UniProt P49792). The experiment is described as follows: solid-phase binding assay in microtiter wells.

In experiment [1], “SUMO-1-modified NΔ419 (RanGAP1 amino acids 420-589) (from UniProt P46061 420-589) (complex)” returned a percent of added protein bound of 20%. The substance further registered a fold reduction in binding against the domain containing FXFG repeats (2503-2893) in experiment [2] of 5 fold.
